Residue numbers refer to the chain shown, from its start.
T1: cynomolgus monkey FcγRIIa1 extracellular domain, His-tagged (cynomolgus monkey)
T1 construct: also called cyno FcγRIIa1; cynoFcgRIIa1; not shown: C-terminal His-tag
T1 chain: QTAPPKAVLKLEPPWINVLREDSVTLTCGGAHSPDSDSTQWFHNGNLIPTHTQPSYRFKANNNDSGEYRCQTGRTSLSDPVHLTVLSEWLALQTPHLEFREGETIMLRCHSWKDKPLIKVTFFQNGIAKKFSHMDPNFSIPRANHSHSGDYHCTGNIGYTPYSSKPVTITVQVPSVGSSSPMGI

T2: cynomolgus monkey FcγRIIa2 extracellular domain, His-tagged (cynomolgus monkey)
T2 construct: also called cyno FcγRIIa2; cynoFcgRIIa2; not shown: C-terminal His-tag
T2 chain: T1 chain with P95T, T121A, I127K, A128S, K130N, D135N, R142Q

T3: cynomolgus monkey FcγRIIa3 extracellular domain, His-tagged (cynomolgus monkey)
T3 construct: also called cyno FcγRIIa3; cynoFcgRIIa3; not shown: C-terminal His-tag
T3 chain: T1 chain with P95T, T121A, A128S, H133P, D135N

T4: human FcγRIIaH extracellular domain, His-tagged (human, UniProt P12318 34-217)
T4 construct: also called human FcγRIIa (type H); FcgRIIaH; not shown: C-terminal His-tag
T4 sequence: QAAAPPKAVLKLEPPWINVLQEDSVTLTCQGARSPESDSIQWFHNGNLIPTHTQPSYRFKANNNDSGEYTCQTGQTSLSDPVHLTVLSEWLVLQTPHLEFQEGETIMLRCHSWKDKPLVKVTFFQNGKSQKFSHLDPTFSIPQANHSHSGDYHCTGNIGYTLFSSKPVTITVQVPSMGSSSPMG

T5: human FcγRIIaR extracellular domain, His-tagged (human, UniProt P12318 34-217)
T5 construct: also called human FcγRIIa (type R); FcgRIIaR; not shown: C-terminal His-tag
T5 chain: T4 sequence with H134R

T6: cynomolgus monkey FcγRIIb extracellular domain, His-tagged (cynomolgus monkey)
T6 construct: also called cyno FcγRIIb; cynoFcγRIIb; not shown: C-terminal His-tag
T6 chain: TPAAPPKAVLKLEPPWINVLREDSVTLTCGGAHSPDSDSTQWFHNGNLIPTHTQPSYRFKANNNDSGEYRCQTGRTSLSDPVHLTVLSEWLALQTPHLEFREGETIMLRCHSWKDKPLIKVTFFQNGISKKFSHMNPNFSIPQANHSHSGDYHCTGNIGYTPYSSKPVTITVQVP

T7: human FcγRIIb extracellular domain, His-tagged (human, UniProt P31994 43-217)
T7 construct: also called FcgRIIb (human); not shown: C-terminal His-tag
T7 sequence: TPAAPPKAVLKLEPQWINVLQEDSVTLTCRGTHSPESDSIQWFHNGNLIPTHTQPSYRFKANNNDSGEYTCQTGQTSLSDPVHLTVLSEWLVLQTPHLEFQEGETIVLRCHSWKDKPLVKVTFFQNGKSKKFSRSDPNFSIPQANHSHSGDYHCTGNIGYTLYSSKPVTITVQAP

T8: cynomolgus monkey FcγRIIb extracellular domain with C-terminal His-tag (cynomolgus monkey)
T8 construct: also called cyno FcgRIIb; cynoFcγRIIb
T8 chain: T6 chain

B1: MS_M103205H795-SG1/M103202L889-SK1 (antibody, human IgG1, kappa)
heavy: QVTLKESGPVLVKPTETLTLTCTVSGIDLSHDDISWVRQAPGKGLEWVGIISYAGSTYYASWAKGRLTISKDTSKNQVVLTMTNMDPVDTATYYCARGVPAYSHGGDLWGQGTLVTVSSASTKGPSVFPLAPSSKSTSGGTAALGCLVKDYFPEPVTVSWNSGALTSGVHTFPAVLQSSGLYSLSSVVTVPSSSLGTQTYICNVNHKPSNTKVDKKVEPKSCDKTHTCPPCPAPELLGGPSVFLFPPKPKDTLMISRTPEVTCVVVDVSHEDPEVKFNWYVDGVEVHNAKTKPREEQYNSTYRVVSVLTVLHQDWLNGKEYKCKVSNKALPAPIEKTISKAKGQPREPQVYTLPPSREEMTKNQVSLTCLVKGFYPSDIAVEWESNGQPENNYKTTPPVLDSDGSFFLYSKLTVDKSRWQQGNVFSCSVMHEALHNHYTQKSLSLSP
light: DIVMTQSPATLSLSPGERATLSCTSSQSVYHANWLSWFQQKPGQPPKLLIYWASTLAYGVPSRFSGSGSGTDFTLTISSLQPEDAATYYCAGGYGGGRYAFGQGTKVEIKRTVAAPSVFIFPPSDEQLKSGTASVVCLLNNFYPREAKVQWKVDNALQSGNSQESVTEQDSKDSTYSLSSTLTLSKADYEKHKVYACEVTHQGLSSPVTKSFNRGEC
notes: Parent antibody with heavy chain constant region SG1; also called MS1032LO06-SG1; copies: 2 + 2
B2: M103205H795-MY441/M103202L889-SK1 (antibody, human IgG1, kappa)
heavy: QVTLKESGPVLVKPTETLTLTCTVSGIDLSHDDISWVRQAPGKGLEWVGIISYAGSTYYASWAKGRLTISKDTSKNQVVLTMTNMDPVDTATYYCARGVPAYSHGGDLWGQGTLVTVSSASTKGPSVFPLAPSSKSTSGGTAALGCLVKDYFPEPVTVSWNSGALTSGVHTFPAVLQSSGLYSLSSVVTVPSSSLGTQTYICNVNHKPSNTKVDKKVEPKSCDKTHTCPPCPAAELLTGPSVFLFPPKPKDTLMISRTPEVTCVVVDVSDEDPEVKFNWYVDGVEVHNAKTKPREEQYNSTYRVVSVLTVLHQDWLNGKEYKCKVSNKALPKPIEKTISKAKGQPREPQVYTLPPSREEMTKNQVSLTCLVKGFYPSDIAVEWESNGQPENNYKTTPPVLDSDGSFFLYSKLTVDKSRWQQGNVFSCSVMHEALHNHYTQKSLSLSP
light: B1 light
notes: copies: 2 + 2
B3: M103205H795-MY445/M103202L889-SK1 (antibody, human IgG1, kappa)
heavy: B2 heavy with A234G
light: B1 light
notes: copies: 2 + 2
B4: M103205H795-MY443/M103202L889-SK1 (antibody, human IgG1, kappa)
heavy: B2 heavy with A234E
light: B1 light
notes: copies: 2 + 2
B5: M103205H795-MY265/M103202L889-SK1 (antibody, human IgG1, kappa)
heavy: B2 heavy with A234P
light: B1 light
notes: also called MS103205H795-MY265; copies: 2 + 2
B6: M103205H795-MY444/M103202L889-SK1 (antibody, human IgG1, kappa)
heavy: B2 heavy with A234F
light: B1 light
notes: copies: 2 + 2
B7: M103205H795-MY442/M103202L889-SK1 (antibody, human IgG1, kappa)
heavy: B2 heavy with A234D
light: B1 light
notes: copies: 2 + 2
B8: M103205H795-MY526/M103202L889-SK1 (antibody, human IgG1, kappa)
heavy: B2 heavy with A233T, A234P, S241V, Q297L
light: B1 light
notes: Substitutions introduced into M103205H795-SG1, expressed with M103202L889-SK1 as light chain; EU numbering
B9: M103205H795-MY530/M103202L889-SK1 (antibody, human IgG1, kappa)
heavy: B2 heavy with A234P, K328T
light: B1 light
notes: as for B8
B10: M103205H795-MY529/M103202L889-SK1 (antibody, human IgG1, kappa)
heavy: B2 heavy with A234P, L236W, Q297L
light: B1 light
notes: as for B8
B11: M103205H795-MY528/M103202L889-SK1 (antibody, human IgG1, kappa)
heavy: B2 heavy with A234P, L236W
light: B1 light
notes: as for B8
B12: M103205H795-MY531/M103202L889-SK1 (antibody, human IgG1, kappa)
heavy: B2 heavy with A234P, L236W, K328T
light: B1 light
notes: as for B8
B13: M103205H795-MY532/M103202L889-SK1 (antibody, human IgG1, kappa)
heavy: B2 heavy with A234P, L236W, S241V
light: B1 light
notes: as for B8
B14: M103205H795-MY527/M103202L889-SK1 (antibody, human IgG1, kappa)
heavy: B2 heavy with A233T, A234P, Q297L
light: B1 light
notes: as for B8

Target: T1, cynomolgus monkey FcγRIIa1 …
Assay: SPR (BIACORE); KD of SG1 divided by KD of variant;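 also: relative to parent M103205H795-SG1 carrying the SG1 human heavy chain constant region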
Method: (§1) The kinetic analysis of interactions between these antibodies and FcγR was carried out using BIACORE® T200 or BIACORE® 4000 (GE Healthcare). HBS-EP+ (GE Healthcare) was used as the running buffer, and the measurement temperature was set to 25° C. A chip produced by immobilizing Protein A. Protein A/G or mouse anti-human IgG kappa light chain (BD Biosciences) onto a Series S Sensor Chip CM4 or CM5 (GE Healthcare) by the amine-coupling method was used. […] After the measurement, the antibody captured on the chip was washed off by allowing reaction with 10 mM glycine-HCl, pH1.5 and 25 mM NaOH so that the chip was regenerated and used repeatedly. The sensorgrams obtained as measurement results were analyzed by the 1:1 Langmuir binding model using the BIACORE® Evaluation Software to calculate the binding rate constant ka (L/mol/s) and dissociation rate constant kd (l/s), and the dissociation constant KD (mol/L) was calculated from these values. […] Regarding such interactions, KD values were calculated using the following 1:1 binding model described in BIACORE® T100 Software Handbook BR1006-48 Edition AE.

Row | Binder | KD fold (SG1 = 1) [fold]
1 | B1 | 1
2 | B2 | 0.8
3 | B3 | 0.6
4 | B4 | 0.7
5 | B5 | 1.5
6 | B6 | 2.7
7 | B7 | 0.7

Target: T2, cynomolgus monkey FcγRIIa2 …
Assay: SPR (BIACORE); KD of SG1 divided by KD of variant;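 also: relative to parent M103205H795-SG1 carrying the SG1 human heavy chain constant region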
Method: as §1

Row | Binder | KD fold (SG1 = 1) [fold]
8 | B1 | 1
9 | B2 | 1.5
10 | B3 | 0.9
11 | B4 | 1
12 | B5 | 2.7
13 | B6 | 4.6
14 | B7 | 1.2

Target: T3, cynomolgus monkey FcγRIIa3 …
Assay: SPR (BIACORE); KD of SG1 divided by KD of variant;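 also: relative to parent M103205H795-SG1 carrying the SG1 human heavy chain constant region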
Method: as §1

Row | Binder | KD fold (SG1 = 1) [fold]
15 | B1 | 1
16 | B2 | 2.1
17 | B3 | 1.2
18 | B4 | 1.9
19 | B5 | 3.5
20 | B6 | 6.9
21 | B7 | 2.5

Target: T4, human FcγRIIaH extracellular domain, …
Assay: SPR (BIACORE); KD of SG1 divided by KD of variant;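 also: relative to parent M103205H795-SG1 carrying the SG1 human heavy chain constant region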
Method: as §1

Row | Binder | KD fold (SG1 = 1) [fold]
22 | B1 | 1
23 | B2 | 1.9
24 | B3 | 1.2
25 | B4 | 1.3
26 | B5 | 3.3
27 | B6 | 6.3
28 | B7 | 1.5

Target: T5, human FcγRIIaR extracellular domain, …
Assay: SPR (BIACORE); KD of SG1 divided by KD of variant
Method: as §1

Row | Binder | KD fold (SG1 = 1) [fold]
29 | B1 | 1
30 | B2 | 1.8
31 | B3 | 1
32 | B4 | 1.7
33 | B5 | 2.5
34 | B6 | 7.9
35 | B7 | 2.6

Target: T9, human FcγRIIIaV extracellular domain, His-tagged (human, UniProt P08637 17-208)
T9 construct: also called FcgRIIIaV; not shown: C-terminal His-tag
T9 sequence (P08637 17-208 F176V): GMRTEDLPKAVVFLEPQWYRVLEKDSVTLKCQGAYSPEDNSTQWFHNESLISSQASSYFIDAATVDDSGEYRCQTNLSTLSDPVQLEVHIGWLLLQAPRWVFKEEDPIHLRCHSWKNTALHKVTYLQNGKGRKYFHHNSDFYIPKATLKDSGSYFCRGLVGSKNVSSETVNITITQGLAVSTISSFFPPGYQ
Assay: SPR (BIACORE); KD of SG1 divided by KD of variant
Method: as §1

Row | Binder | KD fold (SG1 = 1) [fold]
36 | B1 | 1
37 | B2 | 0.1
38 | B3 | 0.1
39 | B4 | 0.1
40 | B5 | 0.2
41 | B6 | 0.3
42 | B7 | 0.2

Target: T6, cynomolgus monkey FcγRIIb extracellular …
Assay: SPR (BIACORE); KD of SG1 divided by KD of variant
Method: as §1

Row | Binder | KD fold (SG1 = 1) [fold]
43 | B1 | 1
44 | B2 | 2
45 | B3 | 1.9
46 | B4 | 1.5
47 | B5 | 3.1
48 | B6 | 6
49 | B7 | 1.6

Target: T7, human FcγRIIb extracellular domain, …
Assay: SPR (BIACORE); KD of SG1 divided by KD of variant
Method: as §1

Row | Binder | KD fold (SG1 = 1) [fold]
50 | B1 | 1
51 | B2 | 1.6
52 | B3 | 1.1
53 | B4 | 1.6
54 | B5 | 2.1
55 | B6 | 6.2
56 | B7 | 2.6

Target: T8, cynomolgus monkey FcγRIIb extracellular …
Assay: SPR (BIACORE), antibody captured, FcgR analyte

Row | Binder | Kd [nM]
57 | B8 | 450
58 | B9 | 320
59 | B10 | 390
60 | B11 | 410
61 | B12 | 270
62 | B13 | 230
63 | B14 | 340

— patent publication US20200317768A1 (published 2020)
